Columns and labels:
[1] = molecular target: T1, Human Tie2 (1-452)A6-Fc (human, UniProt Q02763 23-452); assay: ELISA; Tie2-Fc coated at 1 ug/mL; signal at 100 ng/mL antibody vs convergence value on the parent
T1 construct: range 1-452
Method: (§1) The next day, the immobilized solution was removed, and the plate was washed with a TBS-T solution, and incubated for 60 minutes by the addition of 50 μL of a Blocker™ Casein in TBS (Thermo Fisher Scientific Inc., 37532) to perform blocking. The resultant was washed with a TBS-T solution, and TIE-1-Igγ1-LALA, diluted with 0.05% Tween 20 (Nacalai Tesque Inc., 28353-85)—containing Blocker™ Casein in TBS from 0.03 ng/mL to 100 ng/mL through eight steps, was added thereto in the amount of 20 μL per well. The resultant was incubated at room temperature for 90 minutes and then washed with a TBS-T solution three times, and 20 μL of a biotin-labeled anti-human kappa light chain antibody, which had been diluted to 0.1 μg/mL with 0.05% Tween 20-containing Blocker™ Casein in TBS, was added thereto. The resultant was incubated at room temperature for 60 minutes and then washed with a TBS-T solution three times, and 20 μL of alkaline phosphatase-labeled streptavidin, which had been diluted to 0.1 μg/mL with 0.05% Tween 20-containing Blocker™ Casein in TBS, was added thereto. The resultant was incubated at room temperature for 60 minutes and then washed with a TBS-T solution three times, and 50 μL of Chemiluminescent Ultra Sensitive AP Microwell and/or Membrane Substrate (450 nm), which had been 5-fold diluted with 1 mM MgCl₂-containing 20 mM TBS (pH 9.8) as a substrate, was added thereto. The resultant was incubated at room temperature under light-shielding for 40 minutes, and then luminescent intensity thereof was measured with an EnVision™ multi-label counter. The EC₅₀ value of TIE-1-Igγ1-LALA with respect to the human Tie2 (1-452)-Fc chimeric protein and 23 mutant proteins thereof were calculated. The relative value of luminescent intensity of 100 ng/mL TIE-1-Igγ1-LALA as maximum concentration point with respect to human Tie2 (1-452)-Fc chimeric protein and 23 mutant proteins thereof when the convergence value of the sigmoid curve of TIE-1-Igγ1-LALA binding to the human Tie2 (1-452)-Fc chimeric protein which was taken as 100% was calculated (Table 8 and Table 9). Further, the EC₅₀ value and the convergence value were calculated by Sigmoid-Emax model non-linear regression analysis.

[2] = molecular target: T2, human Tie2 (1-452)-Fc chimeric protein (human, UniProt Q02763 23-452); assay: as above
T2 construct: range 1-452; The stated range 1-452 begins at residue 1 of the precursor
Method: as §1

[3] = molecular target: T3, Human Tie2 (1-452)A4-Fc (human, UniProt Q02763 23-452); assay: as above
T3 construct: range 1-452
Method: as §1

[4] = molecular target: T4, Human Tie2 (1-452)m1-Fc (human, UniProt Q02763 23-452); assay: ELISA; Tie2-Fc coated at 1 ug/mL, chemiluminescence
T4 construct: range 1-452
Method: as §1

[5] = molecular target: T5, Human Tie2 (1-452)r3-Fc (human, UniProt Q02763 23-452); assay: as above
T5 construct: range 1-452
Method: as §1

[6] = molecular target: T6, Human Tie2 (1-452)c1-Fc (human, UniProt Q02763 23-452); assay: as above
T6 construct: range 1-452
Method: as §1

[7] = molecular target: T7, Human Tie2 (1-452)g4-Fc (human, UniProt Q02763 23-452); assay: as above
T7 construct: range 1-452
Method: as §1

[8] = molecular target: T8, Human Tie2 (1-452)r2-Fc (human, UniProt Q02763 23-452); assay: as above
T8 construct: range 1-452
Method: as §1

[9] = molecular target: T9, Human Tie2 (1-452)g1-Fc (human, UniProt Q02763 23-452); assay: as above
T9 construct: range 1-452
Method: as §1

[10] = molecular target: T10, Human Tie2 (1-452)r4-Fc (human, UniProt Q02763 23-452); assay: as above
T10 construct: range 1-452
Method: as §1

[11] = molecular target: T11, Human Tie2 (1-452)y1-Fc (human, UniProt Q02763 23-452); assay: as above
T11 construct: range 1-452
Method: as §1

[12] = molecular target: T12, Human Tie2 (1-452)g5-Fc (human, UniProt Q02763 23-452); assay: as above
T12 construct: range 1-452
Method: as §1

[13] = molecular target: T13, Human Tie2 (1-452)m3-Fc (human, UniProt Q02763 23-452); assay: as above
T13 construct: range 1-452
Method: as §1

[14] = molecular target: T14, Human Tie2 (1-452)r5-Fc (human, UniProt Q02763 23-452); assay: as above
T14 construct: range 1-452
Method: as §1

[15] = molecular target: T15, Human Tie2 (1-452)r7-Fc (human, UniProt Q02763 23-452); assay: as above
T15 construct: range 1-452
Method: as §1

[16] = molecular target: T16, Human Tie2 (1-452)r6-Fc (human, UniProt Q02763 23-452); assay: as above
T16 construct: range 1-452
Method: as §1

[17] = molecular target: T17, Human Tie2 (1-452)g6-Fc (human, UniProt Q02763 23-452); assay: as above
T17 construct: range 1-452
Method: as §1

[18] = molecular target: T18, Human Tie2 (1-452)r1-Fc (human, UniProt Q02763 23-452); assay: as above
T18 construct: range 1-452
Method: as §1

[19] = molecular target: T19, Human Tie2 (1-452)g2-Fc (human, UniProt Q02763 23-452); assay: as above
T19 construct: range 1-452
Method: as §1

T15 sequence (Q02763 other isoform, or with tags, fused parts or gaps limits assumed, form in doubt): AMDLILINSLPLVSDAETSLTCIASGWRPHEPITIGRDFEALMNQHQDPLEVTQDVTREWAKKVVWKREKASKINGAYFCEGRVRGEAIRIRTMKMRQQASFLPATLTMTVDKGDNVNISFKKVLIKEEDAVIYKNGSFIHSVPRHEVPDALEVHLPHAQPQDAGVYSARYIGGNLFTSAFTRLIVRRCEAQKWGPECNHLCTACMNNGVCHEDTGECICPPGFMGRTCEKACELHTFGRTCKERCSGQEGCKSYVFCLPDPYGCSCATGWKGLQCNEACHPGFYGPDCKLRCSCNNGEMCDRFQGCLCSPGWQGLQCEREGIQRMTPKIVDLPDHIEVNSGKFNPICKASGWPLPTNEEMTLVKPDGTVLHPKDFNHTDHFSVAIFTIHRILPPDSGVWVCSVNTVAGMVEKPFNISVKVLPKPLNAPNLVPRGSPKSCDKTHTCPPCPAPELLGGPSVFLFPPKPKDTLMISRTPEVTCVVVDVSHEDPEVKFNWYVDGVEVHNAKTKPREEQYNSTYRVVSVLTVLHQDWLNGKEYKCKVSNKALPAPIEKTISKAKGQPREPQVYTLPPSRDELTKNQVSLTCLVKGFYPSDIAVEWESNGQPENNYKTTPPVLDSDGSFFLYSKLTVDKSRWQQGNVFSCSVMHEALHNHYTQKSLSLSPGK
T1 sequence (Q02763 other isoform, or with tags, fused parts or gaps limits assumed, form in doubt): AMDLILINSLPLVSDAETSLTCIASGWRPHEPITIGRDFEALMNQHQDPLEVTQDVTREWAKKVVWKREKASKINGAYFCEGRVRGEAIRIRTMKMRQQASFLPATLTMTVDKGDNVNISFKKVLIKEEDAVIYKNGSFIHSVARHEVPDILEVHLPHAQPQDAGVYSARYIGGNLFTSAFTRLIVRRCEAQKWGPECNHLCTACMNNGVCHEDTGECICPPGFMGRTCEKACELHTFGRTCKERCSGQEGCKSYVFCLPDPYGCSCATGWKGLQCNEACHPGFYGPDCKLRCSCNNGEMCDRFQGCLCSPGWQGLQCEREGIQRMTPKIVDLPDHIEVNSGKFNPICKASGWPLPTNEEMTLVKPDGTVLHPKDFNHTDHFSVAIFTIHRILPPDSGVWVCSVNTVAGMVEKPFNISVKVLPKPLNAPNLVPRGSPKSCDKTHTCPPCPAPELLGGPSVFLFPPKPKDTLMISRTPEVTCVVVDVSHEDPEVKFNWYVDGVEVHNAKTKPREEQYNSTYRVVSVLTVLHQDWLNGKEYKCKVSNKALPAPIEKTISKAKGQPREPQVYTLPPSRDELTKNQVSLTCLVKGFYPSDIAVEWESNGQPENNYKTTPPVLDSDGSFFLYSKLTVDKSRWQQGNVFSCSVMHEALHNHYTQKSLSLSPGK
T12 sequence (Q02763 other isoform, or with tags, fused parts or gaps limits assumed, form in doubt): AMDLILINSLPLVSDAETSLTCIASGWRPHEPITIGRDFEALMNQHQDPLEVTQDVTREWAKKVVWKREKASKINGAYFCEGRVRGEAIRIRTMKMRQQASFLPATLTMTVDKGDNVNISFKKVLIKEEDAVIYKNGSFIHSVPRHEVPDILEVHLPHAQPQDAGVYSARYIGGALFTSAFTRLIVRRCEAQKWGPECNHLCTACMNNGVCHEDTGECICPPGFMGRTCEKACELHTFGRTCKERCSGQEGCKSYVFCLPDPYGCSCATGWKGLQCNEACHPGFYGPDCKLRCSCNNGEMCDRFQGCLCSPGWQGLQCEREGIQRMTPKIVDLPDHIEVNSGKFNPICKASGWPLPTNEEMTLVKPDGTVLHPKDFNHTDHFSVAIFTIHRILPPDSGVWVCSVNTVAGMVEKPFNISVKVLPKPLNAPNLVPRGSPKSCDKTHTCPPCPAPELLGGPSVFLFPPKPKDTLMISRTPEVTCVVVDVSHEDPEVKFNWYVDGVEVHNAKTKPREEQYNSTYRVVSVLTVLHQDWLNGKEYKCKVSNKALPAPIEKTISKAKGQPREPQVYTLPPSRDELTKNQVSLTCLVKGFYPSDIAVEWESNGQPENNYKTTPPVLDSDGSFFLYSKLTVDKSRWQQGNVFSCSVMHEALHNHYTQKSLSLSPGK
T6 sequence (Q02763 other isoform, or with tags, fused parts or gaps limits assumed, form in doubt): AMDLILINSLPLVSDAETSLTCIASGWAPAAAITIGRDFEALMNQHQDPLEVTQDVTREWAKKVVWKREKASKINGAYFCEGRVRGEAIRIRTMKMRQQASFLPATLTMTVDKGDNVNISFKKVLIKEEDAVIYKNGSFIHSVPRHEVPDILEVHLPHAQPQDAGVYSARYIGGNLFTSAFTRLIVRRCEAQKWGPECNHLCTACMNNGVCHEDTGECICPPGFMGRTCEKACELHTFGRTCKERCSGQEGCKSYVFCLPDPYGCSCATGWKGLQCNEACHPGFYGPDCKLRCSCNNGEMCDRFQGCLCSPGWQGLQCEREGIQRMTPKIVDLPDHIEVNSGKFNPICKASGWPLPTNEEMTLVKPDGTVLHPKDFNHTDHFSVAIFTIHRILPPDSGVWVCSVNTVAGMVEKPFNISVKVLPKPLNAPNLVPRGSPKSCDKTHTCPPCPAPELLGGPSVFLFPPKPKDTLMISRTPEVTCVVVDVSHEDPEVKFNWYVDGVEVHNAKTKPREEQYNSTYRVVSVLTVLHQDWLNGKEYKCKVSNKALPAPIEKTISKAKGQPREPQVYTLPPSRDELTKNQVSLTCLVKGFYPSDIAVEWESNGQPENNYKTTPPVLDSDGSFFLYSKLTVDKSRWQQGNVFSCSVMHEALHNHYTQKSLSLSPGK
T13 sequence (Q02763 other isoform, or with tags, fused parts or gaps limits assumed, form in doubt): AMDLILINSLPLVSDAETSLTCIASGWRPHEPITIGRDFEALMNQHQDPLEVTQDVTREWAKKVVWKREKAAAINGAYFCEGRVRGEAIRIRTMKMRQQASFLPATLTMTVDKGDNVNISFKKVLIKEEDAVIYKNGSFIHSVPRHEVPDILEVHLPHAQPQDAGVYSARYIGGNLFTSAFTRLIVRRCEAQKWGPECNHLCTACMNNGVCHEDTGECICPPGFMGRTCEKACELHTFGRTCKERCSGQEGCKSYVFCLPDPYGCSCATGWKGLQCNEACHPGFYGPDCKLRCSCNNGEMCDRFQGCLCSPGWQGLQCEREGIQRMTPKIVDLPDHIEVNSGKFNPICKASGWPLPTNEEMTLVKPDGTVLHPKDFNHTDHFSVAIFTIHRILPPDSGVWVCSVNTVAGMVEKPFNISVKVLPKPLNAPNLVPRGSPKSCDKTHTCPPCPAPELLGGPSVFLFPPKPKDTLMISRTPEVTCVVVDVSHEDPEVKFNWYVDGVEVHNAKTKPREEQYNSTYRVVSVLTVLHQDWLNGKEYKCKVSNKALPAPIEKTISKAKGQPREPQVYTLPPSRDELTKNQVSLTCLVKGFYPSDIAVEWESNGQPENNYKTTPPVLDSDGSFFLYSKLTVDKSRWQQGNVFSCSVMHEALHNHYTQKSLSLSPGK
T16 sequence (Q02763 other isoform, or with tags, fused parts or gaps limits assumed, form in doubt): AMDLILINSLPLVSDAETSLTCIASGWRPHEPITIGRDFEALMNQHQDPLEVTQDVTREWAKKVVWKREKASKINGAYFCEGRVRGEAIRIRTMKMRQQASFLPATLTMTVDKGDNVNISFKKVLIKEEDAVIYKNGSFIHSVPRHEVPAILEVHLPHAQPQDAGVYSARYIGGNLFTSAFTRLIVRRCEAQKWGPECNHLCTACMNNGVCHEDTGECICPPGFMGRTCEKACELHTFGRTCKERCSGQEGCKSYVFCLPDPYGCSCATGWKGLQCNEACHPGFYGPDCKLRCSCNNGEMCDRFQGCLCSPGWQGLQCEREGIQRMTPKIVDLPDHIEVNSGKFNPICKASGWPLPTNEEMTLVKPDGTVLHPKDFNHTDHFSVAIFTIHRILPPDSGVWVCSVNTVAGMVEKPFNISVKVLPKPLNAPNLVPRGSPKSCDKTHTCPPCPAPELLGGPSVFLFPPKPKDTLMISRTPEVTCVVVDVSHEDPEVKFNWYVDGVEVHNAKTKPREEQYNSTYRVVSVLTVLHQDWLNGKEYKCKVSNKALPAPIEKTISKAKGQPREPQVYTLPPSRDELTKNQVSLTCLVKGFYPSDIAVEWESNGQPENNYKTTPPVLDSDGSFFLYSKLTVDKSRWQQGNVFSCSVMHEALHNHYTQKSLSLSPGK

B1: TIE-1-Igγ1-LALA (antibody, human IgG1, kappa, L234A L235A)
heavy: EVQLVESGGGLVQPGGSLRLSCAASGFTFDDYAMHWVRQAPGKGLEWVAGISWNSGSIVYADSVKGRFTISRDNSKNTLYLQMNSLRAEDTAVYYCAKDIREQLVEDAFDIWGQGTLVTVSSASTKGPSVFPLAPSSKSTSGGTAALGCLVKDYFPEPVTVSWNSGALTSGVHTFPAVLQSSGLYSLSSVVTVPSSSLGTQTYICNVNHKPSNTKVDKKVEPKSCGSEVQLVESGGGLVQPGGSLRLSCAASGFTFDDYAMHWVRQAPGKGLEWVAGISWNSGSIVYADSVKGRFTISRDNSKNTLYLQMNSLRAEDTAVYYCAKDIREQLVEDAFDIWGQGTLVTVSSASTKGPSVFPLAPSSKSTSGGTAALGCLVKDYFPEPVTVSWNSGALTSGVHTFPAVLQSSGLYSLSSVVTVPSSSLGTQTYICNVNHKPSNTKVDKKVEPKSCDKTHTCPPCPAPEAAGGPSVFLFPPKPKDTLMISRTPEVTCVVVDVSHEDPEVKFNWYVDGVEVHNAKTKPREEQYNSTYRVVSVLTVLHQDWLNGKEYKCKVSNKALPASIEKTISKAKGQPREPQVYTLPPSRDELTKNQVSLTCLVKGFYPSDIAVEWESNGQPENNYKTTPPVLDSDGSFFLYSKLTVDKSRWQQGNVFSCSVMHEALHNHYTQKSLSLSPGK
light: DIQMTQSPSSLSASVGDRVTITCRSSQSLLHSHRYNYLDWYQQKPGKAPKLLIYLGSNRASGVPSRFSGSGSGTDFTLTISSVQPEDFATYYCMQTLQTPLTFGQGTKVEIKRTVAAPSVFIFPPSDEQLKSGTASVVCLLNNFYPREAKVQWKVDNALQSGNSQESVTEQDSKDSTYSLSSTLTLSKADYEKHKVYACEVTHQGLSSPVTKSFNRGEC
notes: Tandem tetravalent format: two heavy chains (VH-CH1-linker-VH-CH1-CH2-CH3) and four light chains; also called tetravalent anti-human Tie2 antibody with L234A, L235A and P331S
B1 was tested, and the “Relative value (%) of luminescent intensity” value (“Relative value (%)” for short) [1] was 99%, the “Relative value (%)” value [2] was 98% and the “Relative value (%)” value [3] was 100%. For the same binder, the EC50 [4] was 1 ng/mL, the EC50 [5] was 1 ng/mL and the EC50 [6] was 1 ng/mL. It also gave an EC50 [7] of 18 ng/mL, an EC50 [8] of 0.9 ng/mL and an EC50 [9] of 12.3 ng/mL. For the same binder, the EC50 [10] was 1 ng/mL, the EC50 [11] was 1 ng/mL and the EC50 [12] was 2.2 ng/mL. For the same binder, the EC50 [13] was 1 ng/mL, the EC50 [14] was 1 ng/mL and the EC50 [15] was 1.1 ng/mL. The EC50 [16] was 1 ng/mL, the EC50 [17] was 1.3 ng/mL and the EC50 [18] was 1.1 ng/mL. For the same binder, the EC50 [19] was 5.5 ng/mL.

— patent US20160222130A1 (Astellas, published 2016)
